The results in this text go back to publication PMC7587234.

In general, Kd refers to the constant that tells how readily two partners part at equilibrium.

Test in all cases: SPR
(In general: SPR reads the build-up and loss of mass on a sensor chip optically.)

In one assay the target is FcγRIIIa (UniProt P08637).
For assay [1], the target named is biotinylated cynomolgus FcRn, p51 subunit with β2-m (cynomolgus monkey) (UniProt Q8SPV9).
Assay [2] has as its target biotinylated human neonatal Fc receptor (hFcRn), p51 subunit with β2-m (human) (UniProt P55899).
The target in assay [3] is human neonatal Fc receptor (hFcRn), soluble heterodimer (UniProt P55899+P61769). The note with it: pH 7.4; not stated (pH 7.4).
The target in assay [4] is cynomolgus monkey neonatal Fc receptor (cyno FcRn), soluble heterodimer (UniProt Q8SPV9+Q8SPW0). The note with it: pH 7.4; not stated (pH 7.4).

Chain of UniProt P55899 (P55899 24-297, chain 1 of 2): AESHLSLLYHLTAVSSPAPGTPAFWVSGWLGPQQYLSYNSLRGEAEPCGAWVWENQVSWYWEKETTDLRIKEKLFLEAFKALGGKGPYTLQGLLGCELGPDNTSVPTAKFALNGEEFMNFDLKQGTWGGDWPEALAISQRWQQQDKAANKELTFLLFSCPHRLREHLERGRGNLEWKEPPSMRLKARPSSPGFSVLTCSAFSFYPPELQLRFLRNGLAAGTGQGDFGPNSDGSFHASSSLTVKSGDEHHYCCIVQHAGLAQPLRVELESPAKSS
Chain of UniProt P55899 (P61769 21-119, chain 2 of 2, further chain): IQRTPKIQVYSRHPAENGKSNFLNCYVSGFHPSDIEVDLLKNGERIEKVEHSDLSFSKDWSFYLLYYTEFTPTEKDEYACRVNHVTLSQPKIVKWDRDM
Chain of UniProt Q8SPV9 (Q8SPV9 24-297, chain 1 of 2): as the sequence (P55899 24-297, chain 1 of 2) above, with N39D, E44Q, G99S, S189G, S190N, L217M, S269T counted along it
Chain of UniProt Q8SPV9 (Q8SPW0 21-119, chain 2 of 2, further chain): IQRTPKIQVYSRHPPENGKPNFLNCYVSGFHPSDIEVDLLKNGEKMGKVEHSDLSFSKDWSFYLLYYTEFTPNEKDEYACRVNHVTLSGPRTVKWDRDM
Chain of UniProt P08637 (P08637 17-208): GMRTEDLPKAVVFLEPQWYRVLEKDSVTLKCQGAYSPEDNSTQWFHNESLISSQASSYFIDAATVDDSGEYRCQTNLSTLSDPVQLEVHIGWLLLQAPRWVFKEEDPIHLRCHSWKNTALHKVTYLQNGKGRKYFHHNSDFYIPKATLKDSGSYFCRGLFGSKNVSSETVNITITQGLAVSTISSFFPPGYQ

Turning to “mAb1 (bevacizumab) with the LS Fc-backbone mutation (M428L/N434S) (antibody)”, the dissociation constant Kd was 0.307 µM in the assay with FcγRIIIa and 0.21 µM in assay [1]. In addition, the Steady State RU, at pH 7.4 in assay [1] was 38.3 RU; in assay [2] it was 44 RU.
adalimumab LS M428L;N434S: the figures for the Steady State RU in assay [3] and in assay [4] were 68.4 RU and 55.7 RU, respectively.
The like results for bevacizumab (mAb1) YD M252Y;T256D were, in that order, 27 RU and 22.2 RU.
For “adalimumab with the LS Fc-backbone mutation (M428L/N434S) (antibody)”, the Kd was 0.196 µM with FcγRIIIa, 0.048 µM in assay [1] and 0.5 µM in assay [2]. Moreover, the figures for the Steady State RU, at pH 7.4 in assay [1] and in assay [2] were 55.7 RU and 68.4 RU, respectively.
With “adalimumab WT Fc (labelled mAb2 in Table 2, mAb3 in Tables 1 and 3)”, the Steady State RU in assay [3] worked out at 2.7 RU; in assay [4] it was 2.5 RU.
Consider “mAb1 (bevacizumab) with the DW Fc-backbone mutation (T256D/T307W) (antibody)”, for which the figures for the Kd (with FcγRIIIa; in assay [1]; in assay [2]) were 0.329 µM, 0.099 µM and 0.126 µM, respectively. Moreover, the Steady State RU, at pH 7.4 in assay [1] was 14.8 RU; in assay [2], 18 RU.
For bevacizumab (mAb1) DW T256D;T307W, the results for the Steady State RU in assay [3] and in assay [4] were 18 RU and 14.8 RU, respectively.
“mAb1 (bevacizumab) with the YD Fc-backbone mutation (M252Y/T256D) (antibody)”: the results for the Kd (with FcγRIIIa; in assay [1]; in assay [2]) were 0.645 µM, 0.12 µM and 0.086 µM, respectively. In addition, the values for the Steady State RU, at pH 7.4 in assay [1] and in assay [2] were 22.2 RU and 27 RU, respectively.
On to adalimumab, wild-type Fc (antibody), for which the Kd with FcγRIIIa is 0.194 µM; in assay [1], 1.1 µM; in assay [2], 0.645 µM.
On the same counts, the results for “mAb1 (bevacizumab), wild-type Fc (antibody)” are 0.377 µM, 1.44 µM and 0.5 µM.
Regarding bevacizumab (mAb1) WT Fc, the Steady State RU in assay [3] and in assay [4] was 1.3 RU each time.
On to bevacizumab (mAb1) DQ T256D;T307Q, for which the figures for the Steady State RU in assay [3] and in assay [4] were 14 RU and 10.9 RU, respectively.
Turning to “mAb1 (bevacizumab) with the DQ Fc-backbone mutation (T256D/T307Q) (antibody)”, the Kd in the assay with FcγRIIIa was determined as 0.361 µM; in assay [1] it was 0.11 µM; in assay [2], 0.089 µM. Further, the Steady State RU, at pH 7.4 in assay [1] is 10.9 RU; in assay [2] it was 14 RU.
On to bevacizumab (mAb1) LS M428L;N434S, for which the Steady State RU in assay [3] was 44 RU; in assay [4] it was 38.3 RU.
